Results reported in the supplement of paper PMC12764529.
± gives the half width of the 95% confidence interval.

Legend:
[1] = folding stability dG unfold (combined trypsin and chymotrypsin); higher = more stable
How it was run: (§1)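 Unfolding free energy was derived, per protease or combined, against a sequence-predicted unfolded-state K50 and a shared folded-state K50, starting from K50 inferred by Bayesian fitting of sequencing counts. Digestion with trypsin and chymotrypsin was carried out on designed mini-proteins under 80 residues without cysteine in a PA-tagged cDNA display construct. Only designs with AlphaFold2 dimer inter-PAE above 15 were kept.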

[2] = folding stability dG unfold from chymotrypsin proteolysis; higher = more stable
How it was run: as §1

[3] = folding stability dG unfold from trypsin proteolysis; higher = more stable
How it was run: as §1

Row | Sequence | folding stability dG unfold [1] [kcal/mol] | folding stability dG unfold [2] [kcal/mol] | folding stability dG unfold [3] [kcal/mol]
1 | SAGGSAGGSPEAVVVQTPDGRWLVFLRGPDGSVRPIVVPAGRPEALREVAEELGLTVENLDPVSAGGSAGGS [r12_891_TrMRF] | 2 ± 0.065 | 2.1 ± 0.04 | 1.83 ± 0.052
2 | SAGGSAGGSPEEFEIKIVEPTPIEINPNGSVSLTFTVPNGWYLRIMIMRPPDGNPQPMIMIIPSAGGSAGGS [r20_240_TrROS] | 3.22 ± 0.11 | 3.54 ± 0.062 | 2.86 ± 0.086
3 | SAGGSAGGSPIDITDIEVEQHEHPDGQQYHEVKIRLPDGRPIKIWMSPGSTPDQVLKQAKEFISAGGSAGGS [r12_1047_TrROS] | 0.0598 ± 0.17 | -0.0705 ± 0.26 | -0.137 ± 0.12
4 | SAGGSAGGSPKIEIEQDPNGWWRVKIRPPDGKKRPINIPPGDPEKILDEAEENGWKIDEIEPWSAGGSAGGS [r12_891_TrROS] | 0.404 ± 0.12 | 0.631 ± 0.14 | -0.045 ± 0.2
5 | SAGGSAGGSPKIELLDSRPRPDGSLVELLAIEAEDEIRLLVIVTHPDGVDIRFFEPEYPDLDLSAGGSAGGS [r12_315_TrMRF] | 0.279 ± 0.3 | 0.008 ± 0.18 | 0.386 ± 0.15
6 | SAGGSAGGSPKIKEVKYIPPTGKIEVLIELPNGKPIKVTFDPKIKVNPVFYNGKPIFYFTGNPSAGGSAGGS [r12_789_TrMRF] | 1.19 ± 0.076 | 1.21 ± 0.073 | 0.925 ± 0.015
7 | SAGGSAGGSPKITVDPNTGKVLIEIPGPSGTALIIAEVKDGKITRVDIIGPPELREAIKKLLGSAGGSAGGS [r20_112_TrMRF] | 2.08 ± 0.073 | 2.04 ± 0.092 | 2.19 ± 0.082
8 | SAGGSAGGSPKPKVKKFNMEPVEIEPNPDNGHLSIRFPNGYYIQFHYDDDGEYELQIMPPDDLSAGGSAGGS [r12_351_TrROS] | 0.455 ± 0.17 | 0.764 ± 0.14 | -0.0555 ± 0.14
9 | SAGGSAGGSPLAPGQTVTVRVERVDGPVVITVRNEATGETLTLTFDRPAEDLKPGDTVTVTVTSAGGSAGGS [r12_525_TrROS_Hall] | 2.54 ± 0.045 | 2.897 ± 0.021 | 2.05 ± 0.039
10 | SAGGSAGGSPLPPEVYKIRLKVDGKWYEALARVKPDGTVEVFLKDTGKTFTVPLKDLEIEKLDSAGGSAGGS [r12_782_TrROS_Hall] | 3.35 ± 0.14 | 3.51 ± 0.064 | 3.25 ± 0.19
11 | SAGGSAGGSPMVVFEFKIKDPKIRKAIDEAKKDGDKSAEIPFPNGWPIRITEIEDNYIRITIWSAGGSAGGS [r12_334_TrROS] | 1.69 ± 0.2 | 2.18 ± 0.14 | 1.17 ± 0.058
12 | SAGGSAGGSPNRKEIYIPISEEQFKENGMTPEEIADRIAEKFPHIPPNVRIEYPPNGWIKITVSAGGSAGGS [r12_50_TrROS] | 0.229 ± 0.21 | -0.208 ± 0.33 | 0.198 ± 0.11
13 | SAGGSAGGSPNYRTVTVTLPNGEVYVIDVSQLIESDPNYVPGDPISDEELVALAKKRAEELELSSAGGSAGG [r6_65_JUSTAS] | 3.04 ± 0.041 | 3.249 ± 0.031 | 2.71 ± 0.051
14 | SAGGSAGGSPPPDVPVDVGERVEYHPPGGVVVREYRTPEGRLIRVEIEELEGGELVRRVVLPLSAGGSAGGS [r12_264_JUSTAS] | 1.25 ± 0.17 | 1.33 ± 0.07 | 1.14 ± 0.095
15 | SAGGSAGGSPPPIEIRFPNGWEIDKIDPDDAHIILRMPNWIISIEIDPKDGEIDIDIVPNADVSAGGSAGGS [r12_243_TrROS] | 1.71 ± 0.27 | 2.09 ± 0.32 | 1.15 ± 0.1
16 | SAGGSAGGSPPVKYRITIEMKDPNGKEHTHTIEIPGMNPDDAKEFLEDIPIPPGIKDVEIEPYSAGGSAGGS [r12_886_TrROS] | -0.148 ± 0.24 | -0.55 ± 0.68 | -0.0813 ± 0.068
17 | SAGGSAGGSPSVPPEWKVEIVEVTVHPDGSTVTAVIRFEDGSTVTVNSPEALARLVEGGNVVNSAGGSAGGS [r12_455_TrMRF] | 1.51 ± 0.14 | 1.62 ± 0.11 | 1.12 ± 0.047
18 | SAGGSAGGSPSVVTLVSPDYYAEAFYFPDFVLVVLYDPEKGPPQVFLVSNENGELKFFPASEASAGGSAGGS [r12_632_TrMRF] | 2.85 ± 0.18 | 3.24 ± 0.059 | 2.28 ± 0.18
